Measured values reported in patent US20230074436A1 (DENALI THERAPEUTICS, published 2023).
No end group written: not given here. *: point of attachment. Biotin = O=C1N[C@H]2[C@H](CS[C@H]2CCCCC(=O)*)N1

Key:
[1] = target: T1, alpha-synuclein peptide 95-140 (human); experiment: peptide ELISA, coated fragment
T1 construct: synthetic peptide coated on plate
Method: (§1) 96-well Nunc plates were coated with 1 pg/mL of the indicated synthetic peptide in PBS 50 μL/well overnight. The plates were washed three times with PBST, then blocked with 150 μL of 3% BSA in PBS for 1 hour. Purified antibody was diluted by serial dilution methods, from 10 pg/mL to 0.6 ng/ml, and 50 μL of the antibody solution was added to the peptide-coated wells. The plates were incubated for 1 hour at room temperature, then washed three times with PBST. Secondary detection antibody, goat anti-rat HRP (obtained from Southern Biotech) 1:5,000 diluted in BSA-PBS, was added to a concentration of 50 μL/well. Plates were incubated for one hour and washed three times with PBST. Plates were then developed with 50 μL/well of TMB substrate (obtained from Thermo Fisher) and quenched with 50 μL/well of 1 N sulfuric acid. The signal was quantified on a BioTek® plate reader at A450.

[2] = target: T2, alpha-synuclein peptide 61-140 (human); experiment: peptide ELISA, coated fragment
T2 construct: synthetic peptide coated on plate
Method: as §1

asyn_113-127_119A = target: T3, asyn_113-127_119A (human); experiment: Ala-scan peptide ELISA, row C, run 2
T3 construct: substitution is already in the entry; also called pep8
T3 peptide: Biotin-LEDMPVAPDNEAYEM
Method: (§2) 96-well Nunc plates were coated with 50 μL per well of 1 μg/mL streptavidin (from Jackson Immuno Research Laboratory) in PBS at 4° C. overnight. The plates were washed three times with PBST, and blocked with PBS containing 3% BSA at room temperature for 1 hour. The N-terminal biotinylated peptides were dissolved in Milli Q water to a concentration of 2 mg/mL, then further diluted to a concentration of 2 μg/mL with PBS. 50 μl of the diluted peptide was applied to the streptavidin-coated plates and incubated at 4° C. overnight. 2 μg/mL of biotinylated human alpha-synuclein was used as the positive control. The plates were washed three times with PBST before use. Purified antibody was diluted by serial dilution methods, from 20 μg/mL to 1 ng/mL, and 50 μL of the antibody solution was added to the peptide-coated wells. The plates were incubated for 1 hour at room temperature, then washed three times with PBST. Secondary detection antibody (goat anti-rat HRP (obtained from Southern Biotech)) was added with 1:5,000 dilutions and incubated for 1 hour at room temperature, then washed three times with PBST. Plates were developed with 50 μL/well of TMB substrate (Thermo Fisher) and quenched with 50 μL/well of 1 N sulfuric acid. The signal was quantified on a BioTek® plate reader at A450. A parallel repeat was performed for each peptide in a separate plate.

asyn_113-127_124G [3] = target: T4, asyn_113-127_124G (human); experiment: Ala-scan peptide ELISA, row C, run 2
T4 construct: substitution is already in the entry; also called pep13
T4 peptide: Biotin-LEDMPVDPDNEGYEM
Method: as §2

asyn_113-127_120A [4] = target: T5, asyn_113-127_120A (human); experiment: Ala-scan peptide ELISA, row C, run 2
T5 construct: substitution is already in the entry; also called pep9
T5 peptide: Biotin-LEDMPVDADNEAYEM
Method: as §2

asyn_113-127_124P = target: T6, asyn_113-127_124P (human); experiment: Ala-scan peptide ELISA, row C, run 2
T6 construct: substitution is already in the entry; also called pep14
T6 peptide: Biotin-LEDMPVDPDNEPYEM
Method: as §2

asyn_113-127_117A [5] = target: T7, asyn_113-127_117A (human); experiment: Ala-scan peptide ELISA, row C, run 2
T7 construct: substitution is already in the entry; also called pep6
T7 peptide: Biotin-LEDMAVDPDNEAYEM
Method: as §2

asyn_113-127_126A = target: T8, asyn_113-127_126A (human); experiment: Ala-scan peptide ELISA, row C, run 2
T8 construct: substitution is already in the entry; also called pep16
T8 peptide: Biotin-LEDMPVDPDNEAYAM
Method: as §2

asyn_113-127_116A = target: T9, asyn_113-127_116A (human); experiment: Ala-scan peptide ELISA, row C, run 2
T9 construct: substitution is already in the entry; also called pep5
T9 peptide: Biotin-LEDAPVDPDNEAYEM
Method: as §2

asyn_113-127_125A [6] = target: T10, asyn_113-127_125A (human); experiment: Ala-scan peptide ELISA, row C, run 2
T10 construct: substitution is already in the entry; also called pep15
T10 peptide: Biotin-LEDMPVDPDNEAAEM
Method: as §2

[7] = target: T11, biotinylated human alpha-synuclein (human, UniProt P37840 1-140); experiment: Ala-scan peptide ELISA, row C, run 2
Method: as §2

asyn_113-127 [8] = target: T12, asyn_113-127 (human); experiment: Ala-scan peptide ELISA, row C, run 2
T12 construct: also called pep1
T12 peptide: Biotin-LEDMPVDPDNEAYEM
Method: as §2

asyn_113-127_123A [9] = target: T13, asyn_113-127_123A (human); experiment: Ala-scan peptide ELISA, row C, run 2
T13 construct: substitution is already in the entry; also called pep12
T13 peptide: Biotin-LEDMPVDPDNAAYEM
Method: as §2

asyn_113-127_121A = target: T14, asyn_113-127_121A (human); experiment: Ala-scan peptide ELISA, row C, run 2
T14 construct: substitution is already in the entry; also called pep10
T14 peptide: Biotin-LEDMPVDPANEAYEM
Method: as §2

asyn_113-127_118A [10] = target: T15, asyn_113-127_118A (human); experiment: Ala-scan peptide ELISA, row C, run 2
T15 construct: substitution is already in the entry; also called pep7
T15 peptide: Biotin-LEDMPADPDNEAYEM
Method: as §2

asyn_113-127_114A [11] = target: T16, asyn_113-127_114A (human); experiment: Ala-scan peptide ELISA, row C, run 2
T16 construct: substitution is already in the entry; also called pep3
T16 peptide: Biotin-LADMPVDPDNEAYEM
Method: as §2

asyn_113-127_115A [12] = target: T17, asyn_113-127_115A (human); experiment: Ala-scan peptide ELISA, row C, run 2
T17 construct: substitution is already in the entry; also called pep4
T17 peptide: Biotin-LEAMPVDPDNEAYEM
Method: as §2

asyn_113-127_113A = target: T18, asyn_113-127_113A (human); experiment: Ala-scan peptide ELISA, row C, run 2
T18 construct: substitution is already in the entry; also called pep2
T18 peptide: Biotin-AEDMPVDPDNEAYEM
Method: as §2

asyn_113-127_127A [13] = target: T19, asyn_113-127_127A (human); experiment: Ala-scan peptide ELISA, row C, run 2
T19 construct: substitution is already in the entry; also called pep17
T19 peptide: Biotin-LEDMPVDPDNEAYEA
Method: as §2

asyn_113-127_122A = target: T20, asyn_113-127_122A (human); experiment: Ala-scan peptide ELISA, row C, run 2
T20 construct: substitution is already in the entry; also called pep11
T20 peptide: Biotin-LEDMPVDPDAEAYEM
Method: as §2

asyn_113-127 [14] = target: T12, asyn_113-127; experiment: Ala-scan peptide ELISA, row C, run 1
Method: as §2

asyn_113-127_115A [15] = target: T17, asyn_113-127_115A; experiment: Ala-scan peptide ELISA, row C, run 1
Method: as §2

mouse alpha-synuclein = mouse alpha-synuclein (mouse, UniProt O55042 1-140); experiment: direct ELISA on coated antigen; Table 6 titration ELISA, mouse aSyn; Bmax 0.1 (weak binding)
Method: 96-well Nunc plates were coated with 50 μL of recombinant human, mouse, or rat alpha-synuclein at a concentration of 1 μg/mL in PBS at 4° C. overnight. The plates were then washed three times with PBST and blocked with PBS containing 3% BSA at room temperature for 1 hour. Purified antibody was diluted by serial dilution methods, from 10 μg/mL to 0.6 ng/mL, and 50 μL of the antibody solution was added to the alpha-synuclein-coated wells. The plates were incubated for 1 hour at room temperature, then washed three times with PBST. Secondary detection antibody (goat anti-rat HRP (obtained from Southern Biotech)) was added 50 μL/well, 1:5,000 diluted in BSA-PBS solution. Plates were incubated for 1 hour at room temperature, then washed three times with PBST. Plates were subsequently developed with 50 μL/well of TMB substrate (Thermo Fisher) and quenched with 50 μL/well of 1 N sulfuric acid. The signal was quantified on a BioTek® plate reader at A450.

[16] = target: human alpha-synuclein monomer (human, UniProt P37840 1-140); experiment: SPR (Biacore), antibody captured, monomer injected, 1:1 fit
Method: Anti-mouse Fc antibody (obtained from GE Healthcare) was immobilized on the surface of a CM5 chip (obtained from GE Healthcare) through amine-coupling to reach about 6,000 to 8,000 response units (RU). The surface was activated by injection of a mixture of 1-ethyl-3-(3-dimethylaminopropyl)-carbodiimide (EDC) and N-hydroxysuccinimide (NETS), both obtained from GE Healthcare, for 7 minutes at room temperature. […] Both injections were done at room temperature.
Purified rat anti alpha-synuclein antibody (10 μg/mL) was injected at room temperature and captured to reach 1,000 to 2,000 RU. […] Sensorgrams were fitted using a 1:1 Langmuir model to estimate kₒₙ and koff.

[17] = target: human alpha-synuclein oligomers (human, UniProt P37840 1-140); experiment: competition ELISA: oligomers titrated in solution against 0.6 nM antibody, free antibody read on aSyn-coated plate
Method: To measure the binding affinities of select antibodies toward oligomeric alpha-synuclein protein, purified antibodies were probed with different concentrations of human alpha-synuclein oligomers in solution, and the levels of unbound antibody were measured by ELISA analysis. In this experiment, 0.6 nM (0.1 pg/mL) of purified antibody was dissolved in phosphate-buffered saline (PBS) solution. […] The mixtures were gently shaken at room temperature for 1 hour to reach equilibrium. After that, these samples were transferred to an alpha-synuclein protein-coated ELISA plate, and antibody not bound to antigen in the previous solution was detected by direct ELISA.

asyn_113-127_124G [18] = target: T4, asyn_113-127_124G; experiment: Ala-scan peptide ELISA, row F, run 1
Method: as §2

asyn_113-127_120A [19] = target: T5, asyn_113-127_120A; experiment: Ala-scan peptide ELISA, row F, run 1
Method: as §2

asyn_113-127_117A [20] = target: T7, asyn_113-127_117A; experiment: Ala-scan peptide ELISA, row F, run 1
Method: as §2

asyn_113-127_125A [21] = target: T10, asyn_113-127_125A; experiment: Ala-scan peptide ELISA, row F, run 1
Method: as §2

[22] = target: T11, biotinylated human alpha-synuclein; experiment: Ala-scan peptide ELISA, row F, run 1
Method: as §2

asyn_113-127_123A [23] = target: T13, asyn_113-127_123A; experiment: Ala-scan peptide ELISA, row F, run 1
Method: as §2

asyn_113-127_118A [24] = target: T15, asyn_113-127_118A; experiment: Ala-scan peptide ELISA, row F, run 1
Method: as §2

asyn_113-127_114A [25] = target: T16, asyn_113-127_114A; experiment: Ala-scan peptide ELISA, row F, run 1
Method: as §2

asyn_113-127_115A [26] = target: T17, asyn_113-127_115A; experiment: Ala-scan peptide ELISA, row F, run 1
Method: as §2

asyn_113-127_127A [27] = target: T19, asyn_113-127_127A; experiment: Ala-scan peptide ELISA, row F, run 1
Method: as §2

B1: 20H4 (antibody, rat IgG2b, V domains shown)
VH: AVQLVESGGGLVQPKESLKISCAASGFTFSNAAMYWVRQAPGKGLELLARIRTKPNNYATYHADSVKGRFTISRDDSQSMVYLHMGNLKTEDTAMYYCTADMATGDYWGPGVMVTVSS
VL: DIQMTQSPPVLSVSVGDRVTLSCKASQNINKNLDWYQQKHGEAPKPLIYSTNNLQTGVPSRFSGSGSGTDYTLTISSLQPEDVATYYCYQYKSAWTFGGGTKLELR
notes: also called clone 20H4; rat 20H4
- antibody concentration at which ELISA is positive [1]: < 40 ng/mL
- antibody concentration at which ELISA is positive [2]: < 40 ng/mL
- A450 (asyn_113-127_119A): 0.046 OD
- A450 (asyn_113-127_124G [3]): 0.295 OD
- A450 (asyn_113-127_120A [4]): 0.223 OD
- A450 (asyn_113-127_124P): 0.055 OD
- A450 (asyn_113-127_117A [5]): 0.441 OD
- A450 (asyn_113-127_126A): 0.369 OD
- A450 (asyn_113-127_116A): 0.393 OD
- A450 (asyn_113-127_125A [6]): 0.052 OD
- A450 [7]: 0.976 OD
- A450 (asyn_113-127 [8]): 0.307 OD
- A450 (asyn_113-127_123A [9]): 0.377 OD
- A450 (asyn_113-127_121A): 0.281 OD
- A450 (asyn_113-127_118A [10]): 0.44 OD
- A450 (asyn_113-127_114A [11]): 0.367 OD
- A450 (asyn_113-127_115A [12]): 0.306 OD
- A450 (asyn_113-127_113A): 0.377 OD
- A450 (asyn_113-127_127A [13]): 0.443 OD
- A450 (asyn_113-127_122A): 0.051 OD
- A450 (asyn_113-127 [14]): 0.48 OD
- A450 (asyn_113-127_115A [15]): 0.417 OD
- EC50 (mouse alpha-synuclein): 4.3 nM
- Kd [16]: 3.01 nM
- IC50 [17]: 5.38 nM
- A450 (asyn_113-127_124G [18]): 0.145 OD
- A450 (asyn_113-127_120A [19]): 0.132 OD
- A450 (asyn_113-127_117A [20]): 0.174 OD
- A450 (asyn_113-127_125A [21]): 0.044 OD
- A450 [22]: 0.243 OD
- A450 (asyn_113-127_123A [23]): 0.171 OD
- A450 (asyn_113-127_118A [24]): 0.169 OD
- A450 (asyn_113-127_114A [25]): 0.153 OD
- A450 (asyn_113-127_115A [26]): 0.089 OD
- A450 (asyn_113-127_127A [27]): 0.144 OD
